Laboratory results from patent US20210205411A1, “CCR5 INHIBITOR FOR USE IN TREATING CANCER” (ORION BIOTECHNOLOGY SWITZERLAND SÀRL, priority 2018, published 2021).

Tests used:
human CCR5 [1] = molecular target: T1, human CCR5 (Homo sapiens, UniProt P51681); test: cell-based or functional assay
human CCR5 [2] = molecular target: T1, human CCR5; test: CCR5 signaling inhibition, aequorin calcium sensor in CHO cells, agonist human MIP-1β/CCL4; settings: read-out: IC50, inhibition of CCR5 signaling (FIG. 1C), CHO cells expressing human CCR5, agonist MIP-1β/CCL4, n=2
Description: The signaling activity measured in the cells at each inhibitor concentration is expressed as a percentage of the signal elicited by the agonist in the absence of inhibitor (n=2) (FIGS. 1A, 1B and 1C).

recombinant human CCR3 = molecular target: T2, recombinant human CCR3 (Homo sapiens, UniProt P51677); test: GTPγ35S functional assay, inhibition testing, CCR3; assay type: biochemical; settings: CHO-K1 membrane extracts; reference agonist at EC80; FIG. 3B
T2 construct: host or cells: CHO-K1 cells (membrane extracts)
T2 sequence (P51677 1-355): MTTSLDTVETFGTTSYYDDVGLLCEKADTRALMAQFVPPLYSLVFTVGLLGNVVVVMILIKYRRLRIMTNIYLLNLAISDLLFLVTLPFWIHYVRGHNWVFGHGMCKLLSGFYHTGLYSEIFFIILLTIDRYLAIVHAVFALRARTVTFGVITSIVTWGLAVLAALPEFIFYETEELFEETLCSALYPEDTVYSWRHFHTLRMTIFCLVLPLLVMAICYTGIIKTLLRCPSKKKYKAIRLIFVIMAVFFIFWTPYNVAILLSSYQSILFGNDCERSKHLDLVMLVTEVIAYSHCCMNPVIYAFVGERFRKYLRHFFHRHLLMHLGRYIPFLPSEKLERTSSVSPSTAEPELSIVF
Experimental: (§1) Assay buffer was 20 mM HEPES pH 7.4; 200mM NaCl, 10 μg/ml saponin, MgCl2 at optimized concentration for the specific receptor, 0.1% BSA. CHO-K1 cells expressing recombinant human receptor membrane extracts were thawed on ice, diluted in assay buffer and kept on ice. GDP was diluted in assay buffer to give optimized concentration for the specific receptor. Beads were PVT-WGA (PerkinElmer, RPNQ001), diluted in assay buffer at a concentration optimized for the specific receptor. GTPγ^35S (PerkinElmer NEG030X) was diluted in assay buffer to give 0.1 nM.
(§2) For inhibition testing, membranes were mixed with GDP and incubated for at least 15 min on ice. In parallel, GTPγ^35S was mixed with the beads just before starting the reaction. The following reagents were successively added in the wells of an Optiplate (PerkinElmer): 50 μL of test or reference ligand, 20 μL of the membranes:GDP mix, 10 μL of reference agonist at historical EC80 and 20 μL of the GTPγ^35S:beads mix.
(§3) The plates were covered with a top seal, mixed on an orbital shaker for 2 min, and then incubated for 1 hour at room temperature. Then the plates were centrifuged for 10 min at 2000 rpm, incubated at room temperature for 1 hour and counted for 1 min/well with a PerkinElmer TopCount reader. […]
(§4) Dose-response data were analyzed with XLfit (IDBS) software using nonlinear regression applied to a sigmoidal dose-response model.

recombinant human CCR1 = molecular target: T3, recombinant human CCR1 (Homo sapiens, UniProt P32246); test: GTPγ35S functional assay, inhibition testing, CCR1; assay type: biochemical; settings: FIG. 3A
T3 construct: host or cells: CHO-K1 cells (membrane extracts)
T3 sequence (P32246 1-355): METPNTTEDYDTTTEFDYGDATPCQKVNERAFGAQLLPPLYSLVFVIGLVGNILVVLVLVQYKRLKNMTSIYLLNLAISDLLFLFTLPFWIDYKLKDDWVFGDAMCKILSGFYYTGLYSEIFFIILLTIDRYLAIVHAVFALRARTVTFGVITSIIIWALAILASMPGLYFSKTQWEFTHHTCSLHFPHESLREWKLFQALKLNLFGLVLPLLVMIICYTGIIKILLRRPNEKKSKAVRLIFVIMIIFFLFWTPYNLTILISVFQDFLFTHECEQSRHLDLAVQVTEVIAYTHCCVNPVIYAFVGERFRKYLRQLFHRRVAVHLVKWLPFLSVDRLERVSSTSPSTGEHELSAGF
Experimental: as §1, §2, §3, §4

[3] = Preclinical single dose intravenous infusion, rats; assay type: in vivo; settings: 20 mg/kg
Description: (§5) These findings indicate that this N-terminally modified RANTES variant and its structurally related analogs have enhanced efficacy compared to MVC which is known to be therapeutically effective against several types of cancer, with very little side effects.

[4] = system: CT-26 colorectal cancer cell line; test: CT-26 colorectal cancer animal model; assay type: in vivo, BALB/c mice; settings: for tumor growth / mean tumor volume: intraperitoneal
Description: In one experiment, BALB/c mice were inoculated subcutaneously with the CT-26 colorectal cancer cell line. […] Treatment was given daily or every third day.
In another experiment, BALB/c mice were inoculated subcutaneously with the CT-26 colorectal cancer cell line. […] 5P12-RANTES treatment was given five times a week.

[5] = Preclinical single dose intravenous infusion, cynomolgus macaques; assay type: in vivo; settings: 20 mg/kg
Description: as §5

HIV-1BaL = test: HIV-1 replication assay in peripheral blood mononuclear cells; assay type: cell-based; settings: PBMC from a panel of US donors, FIG. 2
Experimental: For each donor, each compound was evaluated at 9 concentrations in triplicate. Each point represents log IC50 for an individual donor.

T1 sequence (P51681 whole entry): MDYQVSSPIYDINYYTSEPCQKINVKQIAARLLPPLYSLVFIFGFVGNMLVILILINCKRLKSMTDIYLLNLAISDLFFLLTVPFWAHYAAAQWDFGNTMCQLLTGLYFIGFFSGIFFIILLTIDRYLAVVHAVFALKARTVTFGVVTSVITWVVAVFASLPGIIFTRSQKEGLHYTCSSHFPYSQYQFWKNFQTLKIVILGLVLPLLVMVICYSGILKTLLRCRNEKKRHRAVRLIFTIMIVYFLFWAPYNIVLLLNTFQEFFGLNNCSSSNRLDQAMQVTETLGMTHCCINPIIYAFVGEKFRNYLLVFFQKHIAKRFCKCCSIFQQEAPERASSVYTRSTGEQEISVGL

B1: PRO-140 (antibody, INN chains, looked up, V domains shown)
VH: EVQLVESGGGLVKPGGSLRLSCAASGYTFSNYWIGWVRQAPGKGLEWIGDIYPGGNYIRNNEKFKDKTTLSADTSKNTAYLQMNSLKTEDTAVYYCGSSFGSNYVFAWFTYWGQGTLVTVSS
VL: DIVMTQSPLSLPVTPGEPASISCRSSQRLLSSYGHTYLHWYLQKPGQSPQLLIYEVSNRFSGVPDRFSGSGSGTDFTLKISRVEAEDVGVYYCSQSTHVPLTFGQGTKVEIK
With B1 as the molecule, how does the IC50 of inhibition of CCL4-induced CCR5 signaling (aequorin calcium sensor, CHO cells), FIG. 1C (human CCR5 [1]) read?
Its IC50 of inhibition of CCL4-induced CCR5 signaling (aequorin calcium sensor, CHO cells), FIG. 1C is 5.6 nM.

And the IC50 (human CCR5 [2])?
The IC50 was 5.6 nM.

B2: 5P12-RANTES: N-terminally modified RANTES variant (SEQ ID NO: 70), CCR5 inhibitor (protein)
chain: QGPPLMATQSCCFAYIARPLPRAHIKEYFYTSGKCSNPAVVFVTRKNRQVCANPEKKWVREYINSLEMS
modifications: ends and bridges not checked
What does the source list for B2?
antagonism towards CCR3 (recombinant human CCR3): no antagonism; antagonism of CCR1 (recombinant human CCR1; CHO-K1 membrane extracts, reference agonist at EC80): no antagonism; potentiation of CCR1 signaling (recombinant human CCR1; at the highest concentrations): moderate level of potentiation; adverse events [3]: without any adverse events; adverse events during treatment ([4]; anti-CTLA-4 experiment, start ten days after inoculation): No adverse events; adverse events during treatment ([4]; anti-PD-1 experiment, start three days after inoculation): No significant adverse events; tumor growth / mean tumor volume ([4]; start ten days after inoculation, five times a week, anti-CTLA-4 experiment, FIG. 4B): delayed tumor growth at multiple time-points; tumor growth / mean tumor volume ([4]; start three days after inoculation, daily or every third day, anti-PD-1 experiment, FIG. 4A): statistically significant delayed tumor growth at multiple time-points; adverse events [5]: without any adverse events; times more potent than MVC in inhibiting HIV-1 replication (HIV-1BaL): 10-30 times
